Test results reported in publication PMC10846153.

Test system: T1, OxyR (Reut_A2805) (Cupriavidus pinatubonensis), ORF:7651349a
T1 sequence: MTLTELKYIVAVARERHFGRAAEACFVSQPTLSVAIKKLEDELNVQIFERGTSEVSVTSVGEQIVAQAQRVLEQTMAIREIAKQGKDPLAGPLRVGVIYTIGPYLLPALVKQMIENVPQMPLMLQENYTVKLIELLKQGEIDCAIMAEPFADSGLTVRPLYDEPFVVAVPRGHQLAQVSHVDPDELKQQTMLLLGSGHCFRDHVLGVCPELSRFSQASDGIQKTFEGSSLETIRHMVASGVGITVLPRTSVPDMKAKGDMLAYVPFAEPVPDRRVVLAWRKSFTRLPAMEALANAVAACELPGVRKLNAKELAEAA
Assay: EMSA
Settings: EMSA: 20 mM Tris pH 7.4, 4 mM MgCl2, 100 mM NaCl, 10% glycerol; 20 min at room temperature; 6% native PAGE with 5% glycerol in 0.5x TBE

## AAATGCATCGCTCTCAGAATACCCAAAAATGAGCAATTCGATGCCATCGACTTTCGCGTTTCTGGCAACTTTGCGCGAACTGTAGAAAATACCGGATTACAGGTATTGTCCTGTCCAAGTCGCACAGCGTAAATTTCGCCTGACTTCCGTTGCGCAACCAACAGAAACACAAAGATT (double strand) [PT6SS1]
  binding: binds
